Measured values published in patent publication US6967100B2, “Pancreatic islet cell growth factors” (The Walter and Eliza Hall Institute of Medical Research, priority 2000, dated 2005).

B1: BMP 5: recombinant human BMP 5 purchased from R&D Systems (protein, UniProt P22003 317-454, looked up)
Bone morphogenetic protein 5: AANKRKNQNRNKSSSHQDSSRMSSVGDYNTSEQKQACKKHELYVSFRDLGWQDWIIAPEGYAAFYCDGECSFPLNAHMNATNHAIVQTLVHLMFPDHVPKPCCAPTKLNAISVLYFDDSSNVILKKYRNMVVRSCGCH
B2: Activin A: recombinant activin A from R&D Systems (protein, UniProt P08476 311-426, looked up)
Inhibin beta A chain: GLECDGKVNICCKKQFFVSFKDIGWNDWIIAPSGYHANYCEGECPSHIAGTSGSSLSFHSTVINHYRMRGHSPFANLKSCCVPTKLRPMSMLYYDDGQNIIKKDIQNMIVEECGCS
B3: BMP 6: recombinant human BMP 6 purchased from R&D Systems (protein, UniProt P22004 375-513, looked up)
Bone morphogenetic protein 6: SASSRRRQQSRNRSTQSQDVARVSSASDYNSSELKTACRKHELYVSFQDLGWQDWIIAPKGYAANYCDGECSFPLNAHMNATNHAIVQTLVHLMNPEYVPKPCCAPTKLNAISVLYFDDNSNVILKKYRNMVVRACGCH

What was measured:
Type in all cases: cell-based
[1] = test system: E15.5 CBA mouse fetal pancreas cells; test: Cystic colony formation of E15.5 fetal mouse pancreas cells in laminin-1 overlay culture; settings: for concentration of maximal stimulation of colony formation: day 6, fewer colonies at higher concentrations; for formation of cystic colonies in the presence of laminin-1: up to 6 days
Experimental: Pancreata were dissected from embryonic day (E)15.5 CBA mouse fetuses and dissociated into single cells as described (Jiang et al., 1999). Briefly, dissected pancreas was digested with trypsin/EDTA for 15 minutes at 37° C. in a shaking water bath. Cells were counted in a haemocytometer and viability determined by trypan blue dye exclusion. Each fetal pancreas yielded 50,000 viable cells (48,509±11,299, n=14). Dissociated cells were plated in 8 well chamber slides (Nunc, Naperville, USA) at 7.5×10^4 cells/well in 0.3 ml AIM V medium supplemented with N-2 (1:100, Gibco BRL Life Technologies, Gaithersburg, USA), 500 UI/ml penicillin and 500 μg/ml streptomycin. Laminin-1 (160 μg/ml), purified from murine Engelbreth-Holm-Swarm tumor basement membrane (Becton Dickinson Labware, Bedford, USA), was overlayed on cells in the presence of various growth factors. Cultures were incubated in 10% CO2 90% air at 37° C., for up to 6 days. Recombinant human BMP 6 and BMP 5, recombinant human TGF-β1 and recombinant activin A were purchased from R&D Systems (Minneapolis, USA). These factors, dissolved at a concentration of 10 ng/μl in mouse tonicity phosphate buffered saline (PBS) containing 0.1% w/v bovine serum albumin (BSA), were added at the start of culture. Phase contrast images of colonies were photographed with Olympus IX70 digitized camera.
Colony formation was assessed at day 6 of culture. A colony was defined as a cellular sphere ≧30 μm in diameter, which contained more than 20 cells. The number of colonies per well was counted directly under a inverted microscope at ×10. Colony counts were performed using a blind design.

[2] = test system: E15.5 CBA mouse fetal pancreas cells; test: as above; settings: BMP alone
[3] = test system: 13.5 dpc fetal mouse pancreas cells; test: Colony formation of 13.5 dpc fetal mouse pancreas cells cultured with BMPs and laminin-1; settings: 13.5 dpc fetal pancreas cells
Experimental: Dissociated fetal pancreas cells were prepared from 13.5 dpc CBA mice. Pregnant mice at 13.5 dpc were killed by cervical dislocation and fetuses collected into ice cold sterile mouse tonicity phosphate-buffered saline (MTPBS). Fetal pancreata were harvested under an Olympus dissection microscope into RPMI 1640 medium and dissociated in a shaking water bath at 37° C. for 11 mins in Ca^2+/Mg^2+-free PBS containing 0.5% v/v trypsin/EDTA as described for testis by Bucci et al. (1986). After dissociation, trypsin was inactivated by addition of 8% w/v bovine serum albumin (BSA, fraction V) (Sigma, St. Louis, USA). The tissue was aspirated several times in a pipette, passed through a 27 gauge needle to make a single cell suspension and then rinsed in 10 μg/ml DNAse I (Promega, Madison, USA) in RPMI 1640 for 10 mins to reduce cellular aggregates. Cell suspensions were filtered through a 70-100 μm steel mesh, centrifuged at 400×g for 5 mins and the supernatant discarded. The cell pellet was resuspended in HYBRIDOMA medium and stored on ice. Cells were counted under a haemocytometer and viability was determined by exclusion of 0.2% v/v trypan blue dye. Pancreatic cells were plated in 8 chamber slides (Nunc) at 1.5×10^4 cells/well in 0.3 ml HYBRIDOMA medium 500 UI/ml penicillin and 500 μg/ml streptomycin. The cells were cultured in 10% v/v CO2, 90% v/v air at 37° C. with 100% humidity for four days in the presence of factors such as laminin-1 and BMPs.
After four days in culture, cells were washed twice with warm MT-PBS and fixed with a 4% v/v paraformaldehye for 10 mins. In some cases, 100 μM BrdU was added to label proliferating cells 12 hours before fixation and detection with monoclonal antibody to BrdU and FITC-labelled rabbit anti-mouse immunoglobulin. For immunoperoxidase staining, endogenous peroxidase was blocked by 3% v/v H2O2 in methanol for 8 mins and, prior to addition of primary antibody, non-specific protein binding was blocked by incubation for at least 30 mins in MTPBS containing 2% w/v BSA or 2% v/v normal rabbit serum. Controls were performed by replacing primary antibody with pre-immune serum from the appropriate species. Tissue sections or cells were incubated with primary antibodies for 90 min RT, followed by three thorough washes with MTPBS. For immunoperoxidase staining, horseradish peroxidase-conjugated rabbit anti-guinea pig, swine anti-rabbit or rabbit anti-mouse immunoglobulins (Dako) diluted 1:80 were added for 30 mins at RT followed by thorough washes; colour was developed with 3,3′-diaminobenzidine/H2O2 for 4-8 mins and slides counterstained with haematoxylin.
A pancreatic cell colony was defined as a spherical collection of 20 cells. Colonies were counted under a×10 power objective with an eyepiece graticule.

C2C12 myoblasts = test: C2C12 cell BMP bioassay (transformation of myoblasts into alkaline phosphatase-containing osteoblasts); settings: conditioned medium of stably transfected CHO cells, compared to medium of untransfected CHO cells
Experimental: BMP activity was measured in the C2C12 cell bioassay, in which BMPs transform C2C12 myoblasts into alkaline phosphatase-containing osteoblasts (Katagiri et al., 1994). Briefly, CHO cells were plated at a density of around 5×10^6 per 75 cm^2 flask in serum-free HYBRIDOMA medium (Gibco BRL Life Technology) (SFHM) containing 10% v/v FCS. Once the cells had reached confluency, the medium was removed, the cells washed twice with SFHM and 10 ml of SFHM then added to each flask. The cells were cultured for four days and the conditioned medium collected, filtered through a 2 micron filter and stored at 4° C.
2×10^3 C2C12 cells were plated into each well of a 96-well tissue culture plate in DME/10% v/v FCS. Twenty-four hours later, the medium was removed and replaced with 100 μl SFHM/1% v/v FCS. 50 μl of each conditioned medium was added in duplicate to the top row of the 96-well plate and the volume of these wells then made up to 200 μl. Using a multi-channel pipette, 100 μl from each well was then serially transferred to subsequent rows thus diluting the conditioned medium 2-fold with each transfer. After incubation for five days, the media were discarded and the cells washed with normal saline. Cells were lysed for 10 mins at room temperature (RT) in 100 μl 0.5% v/v TritonX-100 and 100 mM diethanolamine (pH 9.5) in normal saline. To each well was then added an aqueous solution containing 10 mM diethanolamine, 1 mg/ml p-nitrophenyl phosphate (PNPP) and 0.5 mM MgCl2. The yellow reaction product catalyzed by alkaline phosphatase was allowed to develop for 10-60 mins before reading absorption at 415 nm.

Row | Molecule | concentration of maximal stimulation of colony formation ([1]; laminin-1 160 μg/ml) [ng/mL] | formation of cystic colonies in the presence of laminin-1 ([1]; laminin-1 160 μg/ml) | colony formation in the absence of laminin-1 [2] | BMP 6-induced colony formation ([1]; 100 ng/ml against BMP 6 10 ng/ml, laminin-1 160 μg/ml, p<0.01 (FIG. 10B)) | colony formation relative to laminin-1 alone ([1]; 100 ng/ml, laminin-1 160 μg/ml (FIG. 10A)) | proliferation or colony formation, candidate growth factors individually [3] | BMP activity of conditioned medium (alkaline phosphatase activity of C2C12 cells) (C2C12 myoblasts)
1 | B1 | 100 | synergized with laminin-1 to promote formation of cystic colonies | no effect |  |  |  | 
2 | B2 |  |  |  | antagonized | suppressed colony formation to levels below that observed with laminin-1 alone | unable to promote proliferation or colony formation | 
3 | B3 | 10 | synergized with laminin-1 to promote formation of cystic colonies | no effect |  |  |  | significant BMP activity was never detected
